The text below walks through data of patent US20170044259A1 (CYTOMX THERAPEUTICS, published 2017).

The target of test [1] is T1, human PD-1-Fc (R and D systems, Minneapolis, Minn.) (human, UniProt Q15116 25-167).
T1 construct: bought; also called hPD-1-Fc; hPD-1; not shown: Fc part of the bought fusion
Put plainly: plate ELISA on human PD-1-Fc; reference A1.4. In general terms: An ELISA detects its analyte on a solid surface through an enzyme-linked reagent.

Test [2] concerns the target T1, human PD-1-Fc (R and D systems, …). Put plainly: plate ELISA on adsorbed human PD-1-Fc, single site saturation fit.
Test [3] shares this target. Put plainly: inhibition ELISA on human PD-1-Fc; competitor 2 nM biotinylated PDL2 (hPDL2/Fc).
Test [4] shares this target. Put plainly: inhibition ELISA on human PD-1-Fc; competitor 2 nM biotinylated PD-L1 (hPDL1/Fc).
Test [5] shares this target. Put plainly: plate ELISA on human PD-1-Fc; reference A1.5.
For test [6] the target is unchanged. Put plainly: plate ELISA on human PD-1-Fc; apparent KD.
Test [7] has the same target. Put plainly: plate ELISA on human PD-1-Fc; reference A1.5. This is another data set of the same source.
For test [8] the target is unchanged. Put plainly: plate ELISA on human PD-1-Fc.

Where a chain is given by its changes, count along the chain named. In names and notes the source's numbering stands.

T1 sequence (Q15116 25-167 limits assumed): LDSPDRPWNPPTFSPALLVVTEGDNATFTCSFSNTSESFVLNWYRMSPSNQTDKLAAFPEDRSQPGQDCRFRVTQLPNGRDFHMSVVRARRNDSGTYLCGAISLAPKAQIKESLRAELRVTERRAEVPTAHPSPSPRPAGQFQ

B1: PD-1 1.4 PD009 2001 (antibody, human IgG4 S228P, kappa)
heavy: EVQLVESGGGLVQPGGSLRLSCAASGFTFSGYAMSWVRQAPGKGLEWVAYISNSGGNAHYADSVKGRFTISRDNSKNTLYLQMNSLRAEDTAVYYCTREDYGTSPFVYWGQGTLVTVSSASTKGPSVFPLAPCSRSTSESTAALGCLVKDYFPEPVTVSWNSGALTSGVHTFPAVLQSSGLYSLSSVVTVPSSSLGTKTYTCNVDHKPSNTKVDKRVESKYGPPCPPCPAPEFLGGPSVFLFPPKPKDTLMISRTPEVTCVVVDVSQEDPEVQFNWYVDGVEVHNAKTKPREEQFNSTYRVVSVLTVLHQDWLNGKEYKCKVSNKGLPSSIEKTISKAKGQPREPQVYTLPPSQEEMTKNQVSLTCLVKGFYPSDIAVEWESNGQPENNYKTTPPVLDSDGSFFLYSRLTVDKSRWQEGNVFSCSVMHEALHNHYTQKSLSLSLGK
light: QGQSGQGAPRTCYTYQCSSFYTGGGSSGGSISSGLLSGRSDNHGGGSDIQLTQSPSSLSASVGDRVTITCRASESVDSYGISFMNWFQQKPGKAPKLLIYAASNQGSGVPSRFSGSGSGTDFTLTISSMQPEDFATYYCQQSKDVPWTFGQGTKLEIKRTVAAPSVFIFPPSDEQLKSGTASVVCLLNNFYPREAKVQWKVDNALQSGNSQESVTEQDSKDSTYSLSSTLTLSKADYEKHKVYACEVTHQGLSSPVTKSFNRGEC
notes: also called PD09 (A1.4)
With B1, the “ME (masking efficiency, Kd of the activatable antibody divided by Kd of the parental antibody)” value in test [1] came to 2.

B2: PD-1 1.4 PD001 2001 (antibody, human IgG4 S228P, kappa)
heavy: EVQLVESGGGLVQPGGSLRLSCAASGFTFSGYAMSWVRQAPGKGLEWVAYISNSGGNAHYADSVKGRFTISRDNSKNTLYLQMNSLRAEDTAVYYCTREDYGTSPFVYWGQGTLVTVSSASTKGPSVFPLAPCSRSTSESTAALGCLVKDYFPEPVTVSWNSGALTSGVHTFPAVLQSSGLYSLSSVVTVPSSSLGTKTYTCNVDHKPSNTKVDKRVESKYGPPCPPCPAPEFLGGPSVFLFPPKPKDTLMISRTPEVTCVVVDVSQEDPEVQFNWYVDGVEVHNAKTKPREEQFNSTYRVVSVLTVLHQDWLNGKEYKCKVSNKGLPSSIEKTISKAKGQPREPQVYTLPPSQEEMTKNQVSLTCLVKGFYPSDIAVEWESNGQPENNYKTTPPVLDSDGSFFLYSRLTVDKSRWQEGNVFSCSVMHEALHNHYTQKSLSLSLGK
light: QGQSGQGAMSGCSWSAFCPYLAGGGSSGGSISSGLLSGRSDNHGGGSDIQLTQSPSSLSASVGDRVTITCRASESVDSYGISFMNWFQQKPGKAPKLLIYAASNQGSGVPSRFSGSGSGTDFTLTISSMQPEDFATYYCQQSKDVPWTFGQGTKLEIKRTVAAPSVFIFPPSDEQLKSGTASVVCLLNNFYPREAKVQWKVDNALQSGNSQESVTEQDSKDSTYSLSSTLTLSKADYEKHKVYACEVTHQGLSSPVTKSFNRGEC
notes: hIgG4 S228P/hK; also called PD01 (A1.4)
On to B2, for which, in test [1], the “ME (masking efficiency, Kd of the activatable antibody divided by Kd of the parental antibody)” value came to 25.

B3: m136-M14-MHC724 (antibody, V domains shown)
VH: KVMLVESGGDLVKPGGSLKLSCAASGFTFSSYGMSWVRQTPEKRLEWVATISGGGRDIYYADTVKGRFTISRDNAKNTLYLQMSSLRSEDTALYFCARLYLGFDYWGQGTTLTVSS
VL: DIQMTQSPASQSASLGESVTITCLASQTIGTWLAWYQQKPGKSPQLLIYAATSLADGVPSRFSGSGSGTKFSFKISSLQAEDFVSYYCQQLYSIPWTFGGGTKLEIK
notes: mouse hybridoma antibody, mIgG2a/K
The molecule B3 displayed a Kd in test [2] of 0.19 nM. In addition, the IC50 is 2.8 nM in test [3] and 4.8 nM in test [4].

B4: m245-M3-MHC728 (antibody, V domains shown)
VH: EVKLVESGGGLVKPGGSLKLSCAASGFTFSNYAMSWVRQTPAKRLEWVAYISNGGGDTHYPDSLKGRFTVSRDNAKNTLYLQMSSLKSEDTAMYYCARENYGTSPFVYWGQGTLVTVSA
VL: not shown
notes: as for B3
Take B4: the Kd in test [2] was 0.22 nM.

B5: m136-M13-MHC723 (antibody, V domains shown)
VH: B4 VH with N31G, G54S, D57N, T58A, L64V, V70I, K87R, A97T, N100D
VL: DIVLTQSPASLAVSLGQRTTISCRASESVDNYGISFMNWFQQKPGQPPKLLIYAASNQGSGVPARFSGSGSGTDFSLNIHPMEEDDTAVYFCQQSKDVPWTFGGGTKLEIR
notes: mouse hybridoma antibody, mIgG1/K
The molecule B5 showed a Kd in test [2] of 0.19 nM. Also, the IC50 in test [3] amounted to 2 nM; in test [4] it was 3.3 nM.

B6: PD-1 1.4 PD002 2001 (antibody, human IgG4 S228P, kappa)
heavy: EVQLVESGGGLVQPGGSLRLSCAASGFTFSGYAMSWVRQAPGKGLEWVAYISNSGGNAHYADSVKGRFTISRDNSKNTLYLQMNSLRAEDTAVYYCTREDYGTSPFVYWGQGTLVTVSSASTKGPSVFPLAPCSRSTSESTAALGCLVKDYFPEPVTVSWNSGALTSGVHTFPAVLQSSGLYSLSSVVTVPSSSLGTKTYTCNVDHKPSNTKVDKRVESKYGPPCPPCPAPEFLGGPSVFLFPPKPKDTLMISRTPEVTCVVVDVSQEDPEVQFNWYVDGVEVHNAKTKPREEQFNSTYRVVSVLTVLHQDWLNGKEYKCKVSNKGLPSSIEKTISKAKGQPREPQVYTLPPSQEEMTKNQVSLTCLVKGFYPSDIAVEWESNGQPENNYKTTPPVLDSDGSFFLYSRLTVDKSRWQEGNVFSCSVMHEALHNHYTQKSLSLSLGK
light: QGQSGQGDVNCAIWYSVCTTVPGGGSSGGSISSGLLSGRSDNHGGGSDIQLTQSPSSLSASVGDRVTITCRASESVDSYGISFMNWFQQKPGKAPKLLIYAASNQGSGVPSRFSGSGSGTDFTLTISSMQPEDFATYYCQQSKDVPWTFGQGTKLEIKRTVAAPSVFIFPPSDEQLKSGTASVVCLLNNFYPREAKVQWKVDNALQSGNSQESVTEQDSKDSTYSLSSTLTLSKADYEKHKVYACEVTHQGLSSPVTKSFNRGEC
notes: also called PD02 (A1.4)
Regarding B6, the “ME (masking efficiency, Kd of the activatable antibody divided by Kd of the parental antibody)” value in test [1] was found to be 18.

B7: PD-1 1.5 PD019 2001 (antibody, human IgG4 S228P, kappa)
heavy: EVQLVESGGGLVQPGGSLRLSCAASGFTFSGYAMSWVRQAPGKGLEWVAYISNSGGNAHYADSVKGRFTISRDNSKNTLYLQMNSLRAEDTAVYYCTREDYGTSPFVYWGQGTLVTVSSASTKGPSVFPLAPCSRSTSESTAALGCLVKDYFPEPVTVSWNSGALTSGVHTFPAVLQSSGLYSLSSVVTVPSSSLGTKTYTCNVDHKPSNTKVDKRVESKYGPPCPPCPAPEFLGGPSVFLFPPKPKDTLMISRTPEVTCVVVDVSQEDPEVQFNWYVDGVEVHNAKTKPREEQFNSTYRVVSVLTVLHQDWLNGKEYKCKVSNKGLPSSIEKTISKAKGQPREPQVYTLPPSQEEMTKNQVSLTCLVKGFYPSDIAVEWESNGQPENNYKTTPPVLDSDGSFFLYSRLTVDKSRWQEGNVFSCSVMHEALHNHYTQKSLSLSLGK
light: QGQSGQGPCDQNPYFYPYVCHAGGGSSGGSISSGLLSGRSDNHGGGSDIQLTQSPSSLSASVGDRVTITCRASESVDAYGISFMNWFQQKPGKAPKLLIYAASNQGSGVPSRFSGSGSGTDFTLTISSMQPEDFATYYCQQSKDVPWTFGQGTKLEIKRTVAAPSVFIFPPSDEQLKSGTASVVCLLNNFYPREAKVQWKVDNALQSGNSQESVTEQDSKDSTYSLSSTLTLSKADYEKHKVYACEVTHQGLSSPVTKSFNRGEC
notes: also called PD-19
As for B7, in test [5], the “ME (masking efficiency, Kd of the activatable antibody divided by Kd of the parental antibody)” value worked out at 30. Besides, the Kd in test [6] was determined as 93 nM. Also, in test [7], the “Masking Efficiency” value is 52.

B8: D4 (antibody, human IgG4 S228P, kappa, V domains shown)
VH: EVQLVESGGGLVQPGGSLRLSCAHSGFSFSSYDMSWVRQAPGKGLEWVATISGGGRYTYYADSVKGRFTISRDNSKNTLYLQMNSLRAEDTAVYYCASNYYGFDYWGQGTLLTVSS
VL: DIQMTQSPSSLSASVGDRVTITCKASQDVGTAVAWYQQKPGKAPKLLIYWASTRHTGVPSRFSGSGSGTDFTLTISSVQPEDFATYYCQQYSSYPWTFGQGTKLEIKR
notes: humanized, full length hIgG4/hKappa
Consider B8, for which the binding result in test [8] was “binds”.

B9: A1.0 (antibody, human IgG4 S228P, kappa, V domains shown)
VH: EVQLVESGGGLVQPGGSLRLSCAASGFTFSGYAMSWVRQAPGKGLEWVAYISNSGGNAHYADSVKGRFTISRDNSKNTLYLQMNSLRAEDTAVYYCTREDYGTSPFVYWGQGTLVTVSS
VL: DIQLTQSPSSLSASVGDRVTITCRASESVDNYGISFMNWFQQKPGKAPKLLIYAASNQGSGVPSRFSGSGSGTDFTLTISSMQPEDFATYYCQQSKDVPWTFGQGTKLEIKR
notes: as for B8
Take B9: the binding result in test [8] is “binds”.

B10: A1.4 (antibody, human IgG4 S228P, kappa)
heavy: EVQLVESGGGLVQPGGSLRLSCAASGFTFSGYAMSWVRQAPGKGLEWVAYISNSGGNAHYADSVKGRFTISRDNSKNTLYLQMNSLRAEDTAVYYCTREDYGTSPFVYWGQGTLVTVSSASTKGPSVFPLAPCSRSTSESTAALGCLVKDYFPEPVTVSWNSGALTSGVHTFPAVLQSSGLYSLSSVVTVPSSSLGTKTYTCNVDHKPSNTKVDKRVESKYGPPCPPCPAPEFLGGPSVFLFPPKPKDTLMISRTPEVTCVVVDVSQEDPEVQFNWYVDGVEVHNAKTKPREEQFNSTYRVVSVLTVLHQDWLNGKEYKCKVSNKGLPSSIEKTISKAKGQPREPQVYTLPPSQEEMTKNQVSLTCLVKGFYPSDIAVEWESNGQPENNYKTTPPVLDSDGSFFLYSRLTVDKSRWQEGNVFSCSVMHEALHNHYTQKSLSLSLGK
light: DIQLTQSPSSLSASVGDRVTITCRASESVDSYGISFMNWFQQKPGKAPKLLIYAASNQGSGVPSRFSGSGSGTDFTLTISSMQPEDFATYYCQQSKDVPWTFGQGTKLEIKRTVAAPSVFIFPPSDEQLKSGTASVVCLLNNFYPREAKVQWKVDNALQSGNSQESVTEQDSKDSTYSLSSTLTLSKADYEKHKVYACEVTHQGLSSPVTKSFNRGEC
notes: humanized, full length hIgG4/hKappa; also called anti-PD-1 A1.4; DyLight-650 A1.4
As for B10, the binding result in test [8] was “binds”.

B11: A1.2 (antibody, human IgG4 S228P, kappa, V domains shown)
VH: B9 VH
VL: B9 VL with N31Q
notes: as for B8
For B11, in test [8], the binding result is “binds”.

B12: C1.1 (antibody, human IgG4 S228P, kappa, V domains shown)
VH: B9 VH with G31N, S54G, N57D, A58T, V64L, I70V, T97A, D100N
VL: B9 VL with A13V, V19A
notes: as for B8
Turning to B12, the binding result in test [8] is “binds”.

B13: A1.6 (antibody, human IgG4 S228P, kappa, V domains shown)
VH: B9 VH
VL: B9 VL with N57D
notes: as for B8
Turning to B13, in test [8], the binding result is “binds”.

B14: m245-M5-MHC729 (antibody, V domains shown)
VH: EVQLVESGGGLVKSGGSLKLSCAHSGFSFSSYDMSWVRQTPAKRLEWVATISGGGRYTYYPDSVKGRFTISRDNAKNTLYLQMSGLRSEDTAMYYCASNYYGFDYWGQGTTLTVSS
VL: DIVMTQSHKFMSTSVGDRVSITCKASQDVGTAVAWYQQKPGQSPKLLIYWASTRHTGVPDRFTGSGSGTDFTLTISNVQSEDLADYFCQQYSSYPWTFGGGTKLEIK
notes: as for B5
In test [2], B14 yielded a Kd of 0.34 nM.

B15: Bb2 (antibody, human IgG4 S228P, kappa, V domains shown)
VH: QVQLVQSGAEVKKPGASVKMSCKASGYTFTDYYMDWVRQAPGQGLEWIGYIYPKNGGSSYAQKFQGRATLTVDKSTSTAYMELSSLRSEDTAVYYCARKVVATDYWGQGTLLTVSS
VL: DIQMTQSPSSLSASVGDRVTMTCKSSQSLLYSSNQKNYLAWYQQKPGKAPKLLIFWASIRESGVPSRFSGSGSGTDFTLTISSVQPEDFATYYCQQSDSYPWTFGQGTKLEIKR
notes: as for B8
In the case of B15, in test [8], the binding result is “binds”.

B16: PD-1 1.4 PD003 2001 (antibody, human IgG4 S228P, kappa)
heavy: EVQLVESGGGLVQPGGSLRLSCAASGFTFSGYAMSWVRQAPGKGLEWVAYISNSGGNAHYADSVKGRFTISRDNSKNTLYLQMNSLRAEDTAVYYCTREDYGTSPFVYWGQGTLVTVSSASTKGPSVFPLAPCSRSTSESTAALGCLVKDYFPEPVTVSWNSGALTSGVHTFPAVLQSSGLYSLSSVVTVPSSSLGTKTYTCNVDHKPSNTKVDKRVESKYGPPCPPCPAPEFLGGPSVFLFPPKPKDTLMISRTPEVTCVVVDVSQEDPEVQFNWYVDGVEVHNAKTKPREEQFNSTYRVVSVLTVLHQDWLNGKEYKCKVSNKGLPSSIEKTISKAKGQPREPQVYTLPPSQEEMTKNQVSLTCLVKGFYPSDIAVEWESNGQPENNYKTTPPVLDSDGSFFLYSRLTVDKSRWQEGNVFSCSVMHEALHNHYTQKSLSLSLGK
light: QGQSGQGLVCPLYALSSGVCMGGGGSSGGSISSGLLSGRSDNHGGGSDIQLTQSPSSLSASVGDRVTITCRASESVDSYGISFMNWFQQKPGKAPKLLIYAASNQGSGVPSRFSGSGSGTDFTLTISSMQPEDFATYYCQQSKDVPWTFGQGTKLEIKRTVAAPSVFIFPPSDEQLKSGTASVVCLLNNFYPREAKVQWKVDNALQSGNSQESVTEQDSKDSTYSLSSTLTLSKADYEKHKVYACEVTHQGLSSPVTKSFNRGEC
notes: also called PD03 (A1.4)
Take B16: the “ME (masking efficiency, Kd of the activatable antibody divided by Kd of the parental antibody)” value in test [1] came out at 5.

B17: PD-1 1.4 PD008 2001 (antibody, human IgG4 S228P, kappa)
heavy: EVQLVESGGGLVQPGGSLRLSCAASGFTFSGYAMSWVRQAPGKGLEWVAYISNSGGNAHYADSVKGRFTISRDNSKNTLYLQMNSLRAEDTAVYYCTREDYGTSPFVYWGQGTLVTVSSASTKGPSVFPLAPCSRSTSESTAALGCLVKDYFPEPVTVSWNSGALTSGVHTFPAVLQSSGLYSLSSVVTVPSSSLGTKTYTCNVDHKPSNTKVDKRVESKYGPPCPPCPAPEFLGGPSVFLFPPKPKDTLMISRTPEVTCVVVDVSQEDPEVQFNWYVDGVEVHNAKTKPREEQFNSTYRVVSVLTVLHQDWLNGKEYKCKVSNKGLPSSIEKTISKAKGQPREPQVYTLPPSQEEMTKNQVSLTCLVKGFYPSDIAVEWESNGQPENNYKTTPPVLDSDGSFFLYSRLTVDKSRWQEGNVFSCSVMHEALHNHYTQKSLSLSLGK
light: B16 light with L8E, V9T, P11N, L12Q, A14E, L15R, V19L, M21F, G22A
notes: also called PD08 (A1.4)
Take B17: the “ME (masking efficiency, Kd of the activatable antibody divided by Kd of the parental antibody)” value in test [1] was 13.

B18: PD-1 1.4 PD010 2001 (antibody, human IgG4 S228P, kappa)
heavy: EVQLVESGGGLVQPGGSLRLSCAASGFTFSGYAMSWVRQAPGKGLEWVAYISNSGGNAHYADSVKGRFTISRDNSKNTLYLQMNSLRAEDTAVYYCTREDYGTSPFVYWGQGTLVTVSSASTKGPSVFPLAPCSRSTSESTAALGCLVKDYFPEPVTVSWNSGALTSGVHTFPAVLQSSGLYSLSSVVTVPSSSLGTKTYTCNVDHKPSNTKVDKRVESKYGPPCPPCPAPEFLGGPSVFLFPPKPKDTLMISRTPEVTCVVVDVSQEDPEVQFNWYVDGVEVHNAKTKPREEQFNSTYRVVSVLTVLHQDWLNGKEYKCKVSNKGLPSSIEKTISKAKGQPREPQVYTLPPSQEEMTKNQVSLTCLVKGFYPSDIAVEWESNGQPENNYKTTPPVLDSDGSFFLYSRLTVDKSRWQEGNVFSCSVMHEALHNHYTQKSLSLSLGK
light: B16 light with L8G, V9L, P11S, L12W, A14L, L15S, V19L, M21V, G22D
notes: also called PD-10 (A1.4); PD10 (A1.4)
On to B18, for which the “ME (masking efficiency, Kd of the activatable antibody divided by Kd of the parental antibody)” value in test [1] is 13.

B19: m136-M19-MHC725 (antibody, V domains shown)
VH: EVQLQQSGPELVKPGDSVKMSCKASGYTFTDYYMDWVKQSHGKSLEWIGYIYPKNGGSSYNQKFKGKATLTVDKSSSTAYMELHSLTSEDSAVYYCARKVVATDYWGQGTTLTVSS
VL: DIVMSQSPSSLAVSVGEKVTMSCKSSQSLLYSSNQKNYLAWYQQKPGQSPKLLIFWASIRESGVPDRFTGSGSGTDFTLTISSVKAEDRAVYYCQQCDSYPWTFGGGTKLEIK
notes: mouse hybridoma antibody, mIgG2b/K
Turning to B19, the Kd in test [2] came to 0.23 nM.

The IC50 is the concentration at which inhibition is half-maximal. A low value points to greater potency in that assay.
